The target in data set [1] is GST fusion protein with full-length S. aureus WalR (1–233) (Staphylococcus aureus NCTC8325) (UniProt Q2G2U6).
Data set [2] concerns the target S. mutans WalR full-length (Streptococcus mutans UA159). The data set is described as follows: ITC; MicroCal iTC200, 25°C; 500 μM WalK (196–450) WT or CTT mutant in the syringe, 20 μM full-length WalR in the cell; 20 mM Tris-HCl pH 8.0, 200 mM NaCl, 20% glycerol. (In general: Isothermal titration calorimetry measures the heat released or taken up as one component is titrated into another.)

For data set [3], the target named is T1, S. aureus WalK (364–608) WT (Staphylococcus aureus NCTC8325, UniProt Q2G2U4 364-608).
T1 construct: cloned in pET-His; source: E. coli BL21 (DE3), purified (Ni-NTA, Superdex 200); not shown: His tag, N-terminal, kept
T1 sequence (looked up): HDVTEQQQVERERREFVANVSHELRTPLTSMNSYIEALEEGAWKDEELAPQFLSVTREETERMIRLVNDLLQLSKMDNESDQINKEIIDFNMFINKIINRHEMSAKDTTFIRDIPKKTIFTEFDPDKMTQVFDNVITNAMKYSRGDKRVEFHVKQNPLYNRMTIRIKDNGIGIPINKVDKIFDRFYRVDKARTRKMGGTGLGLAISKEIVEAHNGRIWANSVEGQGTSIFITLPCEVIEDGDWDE
The experiment in a line: pull-down; GST-tagged WalR protein held on glutathione agarose beads, His-tagged WalK as prey, equal molar amounts (~3 μl of 50 μM each) in 1 ml of 20 mM Tris-HCl pH 8.0, 200 mM NaCl, 5% glycerol, 2 mM EDTA, 2 h at 4°C; SDS-PAGE stained with CBB. As to conditions: both partners purified.

In data set [4] the target is T2, S. aureus WalK (364–608) D605A (Staphylococcus aureus NCTC8325, UniProt Q2G2U4 364-608, D605A).
T2 construct: source: E. coli BL21 (DE3), purified (Ni-NTA, Superdex 200); not shown: His tag, N-terminal, kept
T2 sequence: T1 sequence (looked up) with D242A
The data set is described as above. The conditions noted are these: both partners purified.

The target in another data set is WalR full-length (Streptococcus mutans UA159, UniProt Q93MY4 1-235). The experiment in a line: EMSA; 20 uM DNA; complex released by increasing WalK 196-450. As to conditions: protein: recombinant; chain copies: 2.
The target in another data set is WalK (196-450) (Streptococcus mutans UA159, UniProt Q8DT64 196-450). The data set is described as follows: EMSA. The conditions noted are these: protein: recombinant; tags: N-terminal His.
The next data set has as its target WalR DBD (Streptococcus mutans UA159, UniProt Q93MY4 129-235). The experiment in a line: EMSA; 20 uM DNA; complex released by WalK 196-450 (W443A and delta-tail WalK compete less). As to conditions: protein: recombinant; chain copies: 2. For orientation: In EMSA bound probe runs differently from free probe, usually more slowly.

Residue numbers refer to the chain shown, from its start.

A word on the Kd: it is the concentration at which binding is half-saturated. A low value points to higher affinity.

For “S. aureus WalK (364–608) W606A (from UniProt Q2G2U4 364-608) (domain or fragment)”, the phosphotransferase activity of S. aureus WalK (364–608) with WalR (loss of phospho-WalK, at 30 min) in data set [1] was determined as 2 ×.

Molecule “S. mutans WalK (196–450) WT (domain or fragment)” showed a dissociation constant (Kd) in data set [2] of 1210 nM.

“S. aureus WalK (364–608) D607A (from UniProt Q2G2U4 364-608) (domain or fragment)” came in with a phosphotransferase activity of S. aureus WalK (364–608) with WalR (loss of phospho-WalK, at 30 min) in data set [1] of 2 ×.

B1: GST fusion protein with full-length S. aureus WalR (1–233) (natural protein, Staphylococcus aureus NCTC8325, UniProt Q2G2U6 1-233, looked up)
chain: MARKVVVVDDEKPIADILEFNLKKEGYDVYCAYDGNDAVDLIYEEEPDIVLLDIMLPGRDGMEVCREVRKKYEMPIIMLTAKDSEIDKVLGLELGADDYVTKPFSTRELIARVKANLRRHYSQPAQDTGNVTNEITIKDIVIYPDAYSIKKRGEDIELTHREFELFHYLSKHMGQVMTREHLLQTVWGYDYFGDVRTVDVTIRRLREKIEDDPSHPEYIVTRRGVGYFLQQHE
notes: cloned in pET-GST; also called GST-WalR; source: E. coli BL21 (DE3), purified (glutathione agarose, Superdex 200); not shown: GST, N-terminal, kept
Turning to B1, the binding result in data set [3] and in data set [4] was “binds” in each case.

B2: gtfC promoter 25-mer (dsDNA)
DNA 1: GTTTGTTATAAAAGTGTTACAATAC
DNA 2: GTATTGTAACACTTTTATAACAAAC
For B2, the binding result with WalR full-length is recorded as “binds”; in the data set with WalK (196-450) it was “no binding”; with WalR DBD, “binds”.

These data come from publication PMC9087282, “The W-Acidic Motif of Histidine Kinase WalK Is Required for Signaling and Transcriptional Regulation in Streptococcus mutans” (Frontiers in Microbiology, 2022).
